Results reported in US20230382979A1 (ADAPTIVE BIOTECHNOLOGIES, published 2023).
Like-named read-outs stand apart in the source and are kept apart here.

T1: MERS-COV (S2)
T1 chain: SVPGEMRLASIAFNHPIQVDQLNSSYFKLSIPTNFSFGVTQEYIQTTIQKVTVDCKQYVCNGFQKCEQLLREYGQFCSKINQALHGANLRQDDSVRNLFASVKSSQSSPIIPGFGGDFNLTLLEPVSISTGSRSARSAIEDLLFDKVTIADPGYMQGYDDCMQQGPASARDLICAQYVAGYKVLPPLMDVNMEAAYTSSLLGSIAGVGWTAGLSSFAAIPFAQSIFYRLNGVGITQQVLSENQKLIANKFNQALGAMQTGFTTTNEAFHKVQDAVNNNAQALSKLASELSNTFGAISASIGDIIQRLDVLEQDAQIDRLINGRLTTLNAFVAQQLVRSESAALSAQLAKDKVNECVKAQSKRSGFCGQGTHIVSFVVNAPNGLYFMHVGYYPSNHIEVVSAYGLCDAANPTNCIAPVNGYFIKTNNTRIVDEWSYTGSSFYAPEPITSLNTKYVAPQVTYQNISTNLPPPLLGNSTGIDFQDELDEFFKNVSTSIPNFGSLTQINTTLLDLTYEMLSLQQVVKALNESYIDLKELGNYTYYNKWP

T2: MERS-COV (S1+S2)
T2 chain: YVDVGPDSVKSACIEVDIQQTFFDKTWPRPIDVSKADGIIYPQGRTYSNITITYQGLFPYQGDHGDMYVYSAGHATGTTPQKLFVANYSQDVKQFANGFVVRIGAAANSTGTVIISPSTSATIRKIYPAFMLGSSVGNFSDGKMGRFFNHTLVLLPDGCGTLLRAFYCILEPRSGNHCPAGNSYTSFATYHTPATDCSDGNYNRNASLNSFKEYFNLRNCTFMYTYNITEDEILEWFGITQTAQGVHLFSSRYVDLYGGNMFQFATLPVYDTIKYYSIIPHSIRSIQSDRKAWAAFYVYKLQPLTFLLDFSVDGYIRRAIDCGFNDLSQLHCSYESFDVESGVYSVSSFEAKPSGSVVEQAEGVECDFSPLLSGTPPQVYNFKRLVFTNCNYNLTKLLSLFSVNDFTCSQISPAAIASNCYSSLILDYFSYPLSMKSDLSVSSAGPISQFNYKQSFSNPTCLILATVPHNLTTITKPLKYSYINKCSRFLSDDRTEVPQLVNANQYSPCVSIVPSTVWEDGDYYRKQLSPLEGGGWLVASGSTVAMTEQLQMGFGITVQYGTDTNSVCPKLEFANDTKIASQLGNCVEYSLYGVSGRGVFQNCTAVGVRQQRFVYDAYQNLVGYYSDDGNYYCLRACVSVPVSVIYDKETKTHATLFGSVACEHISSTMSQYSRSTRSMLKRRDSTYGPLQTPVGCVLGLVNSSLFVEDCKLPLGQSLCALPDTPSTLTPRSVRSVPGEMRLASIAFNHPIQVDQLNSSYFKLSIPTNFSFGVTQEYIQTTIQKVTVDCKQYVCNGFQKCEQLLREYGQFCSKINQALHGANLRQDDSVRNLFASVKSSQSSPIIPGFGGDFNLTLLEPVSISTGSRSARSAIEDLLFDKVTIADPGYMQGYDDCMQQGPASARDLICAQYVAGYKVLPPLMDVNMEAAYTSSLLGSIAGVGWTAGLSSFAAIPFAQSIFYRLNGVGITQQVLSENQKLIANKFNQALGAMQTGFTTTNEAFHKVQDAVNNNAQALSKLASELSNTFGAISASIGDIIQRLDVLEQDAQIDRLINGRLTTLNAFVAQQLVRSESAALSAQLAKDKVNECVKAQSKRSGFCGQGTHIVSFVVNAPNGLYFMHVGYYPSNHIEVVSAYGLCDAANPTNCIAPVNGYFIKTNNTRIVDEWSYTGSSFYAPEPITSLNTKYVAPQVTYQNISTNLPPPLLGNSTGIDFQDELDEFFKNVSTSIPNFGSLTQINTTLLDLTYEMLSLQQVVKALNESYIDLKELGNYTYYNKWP


Assays:
[1] = biological target: T3, S2 subunit of the SARS-CoV-2 spike protein, WA01/2020 strain (SARS-CoV-2, WA01/2020 strain, UniProt P0DTC2 686-1213); assay: ELISA on S2 (S2 Binding EC50)
MERS-COV (S2) [2] = biological target: T1, MERS-COV (S2); assay: dose-response ELISA on coated spike antigen
MERS-COV (S1+S2) [3] = biological target: T2, MERS-COV (S1+S2); assay: dose-response ELISA on coated spike antigen
[4] = biological target: T3, S2 subunit of the SARS-CoV-2 spike …; assay: dose-response ELISA; antigen taken from the column 'Structural data'
[5] = biological target: T4, S1 subunit of the SARS-CoV-2 spike protein, WA01/2020 strain (SARS-CoV-2, WA01/2020 strain, UniProt P0DTC2 16-685); assay: ELISA screening, antibody concentration not given
[6] = biological target: T5, SARS-CoV-2 nucleocapsid (N) protein (SARS-CoV-2, UniProt P0DTC9 1-419); assay: ELISA screening, antibody concentration not given
[7] = biological target: SARS-CoV (2003) spike protein borne on lentiviral pseudovirus (SARS-CoV (2003), UniProt P59594 14-1255); assay: cell-based or functional assay
[8] = biological target: SARS-CoV-2 spike protein, WA1/2020, borne on lentiviral pseudovirus (SARS-CoV-2, WA01/2020 strain, UniProt P0DTC2 14-1273); assay: cell-based or functional assay
MERS-COV (S2) [9] = biological target: T1, MERS-COV (S2); assay: dose-response ELISA on coated spike antigen
MERS-COV (S1+S2) [10] = biological target: T2, MERS-COV (S1+S2); assay: dose-response ELISA on coated spike antigen
[11] = biological target: T6, SARS-CoV-2 spike (S) protein trimer, WA01/2020 strain (SARS-CoV-2, WA01/2020 strain, UniProt P0DTC2 16-1213); assay: dose-response ELISA; antigen taken from the column 'Structural data'
[12] = biological target: T4, S1 subunit of the SARS-CoV-2 spike …; assay: ELISA, antibody at 0.1 ug/mL
[13] = biological target: T3, S2 subunit of the SARS-CoV-2 spike …; assay: ELISA, antibody at 0.1 ug/mL
[14] = biological target: T5, SARS-CoV-2 nucleocapsid (N) protein; assay: ELISA, antibody at 0.1 ug/mL
[15] = biological target: T6, SARS-CoV-2 spike (S) protein trimer, …
[16] = biological target: T4, S1 subunit of the SARS-CoV-2 spike …; assay: dose-response ELISA; antigen taken from the column 'Structural data'
[17] = biological target: T4, S1 subunit of the SARS-CoV-2 spike …

Row | Binder | EC50 [1] [nM] | EC50 [4] [nM] | binding result [5] | binding result [6] | Pseudo Neut, SARS-CoV 2003 IC50 [7] [nM] | Pseudo Neut, WA1/2020 IC50 (pM) [8] [pM] | other results
1 | antibody 1872 (antibody, V domains shown) VH: EVQLVESGGGLVKPGGSLRLSCAASGFSFSLYTMNWVRQAPGKGLEWVSYISSSSSYRYYADSVKGRFSVSRDNAKNALYLQMNGLRAEDTAVYYCARDGYCPRGVCTYYGMDVWGQGTTVTVSA VL: EIVMTQSPATLSVSPGERATLSCRASQSVGSRLAWYQQKPGQAPRLLIYDATIRATGIPARFSGSGSGTDFTLTISGLQSEDFAVYYCQRYNNWPPAYTFGQGTKLEIK | 0.071 | 0.071 | no binding (tested: not printed) | no binding (tested: not printed) | 27 | 133 | binding result (MERS-COV (S2) [2]): no binding (tested: 10000 ng/ml); binding result (MERS-COV (S1+S2) [3]): no binding (tested: 10000 ng/ml)
2 | antibody 1859 (antibody, V domains shown) VH: EVQLVESGGGLVKPGGSLRLSCAASGFSFNTYTMNWVRQAPGKGLEWVSYISSSSSYKYYSDSVKGRFSVSRDNAKKSLYLQMNGLRAEDTAVYYCARDGYCPNGVCTYYGMDVWGQGTTVTVSL VL: EIVMTQSPATLSVSPGERATLSCRASQSVSSNLAWYQQKPGQAPRLLIYGASTRATGIPARFSGSGSGTEFTLTISGLQSEDFAVYFCQQYSKWPPAYTFGQGTKLEIK | 1.22 | 1.22 | no binding (tested: not printed) | no binding (tested: not printed) | 115 | 889 | binding result (MERS-COV (S2) [9]): no binding (tested: 10000 ng/ml); binding result (MERS-COV (S1+S2) [10]): no binding (tested: 10000 ng/ml)
3 | antibody 2024 (antibody, V domains shown) VH: QVQLVQSGAEVKKPGASVKVSCKVSGYTLIELSMHWVRQAPGKGLEWMGGFDPEEGETIYAQKFQGRVTMTEDTSTDTAYMELSSLRSEDTAVYYCTTSPPVGATGAWFDPWGQGTLVTVSA VL: SYVLTQPPSVSVAPGKTARITCGGNNIGSKSVHWYQQKPGQAPVLVVYDDSDRPSGIPERFSGSNSGNTATLTISGLQAEDEADYYCSSYTSSSTVVFGGGTKLTVL |  |  |  |  |  |  | EC50 [11]: 1.15 nM; binding result [12]: no binding (tested: 0.1 ug/mL); binding result [13]: no binding (tested: 0.1 ug/mL); binding result [14]: no binding (tested: 0.1 ug/mL); Kd [15]: 15.6 nM
4 | antibody 2080 (antibody, V domains shown) VH: QVQLQQWGAGLLKPSETLSLTCAVYGGSFSGYYWSWIRQPPGKGLEWIGRINDIGSTDYNPSLKSRVTISVDTSKNQFSLKLTSVTAADTAVYYCAREPFDSEGTFDYWGQGTLVIVSS VL: DIQMTQPPSTLSASVGDRVTITCRASQSISRWLAWYRQKPGKAPKLLIYDASSLQSGVPSRFSGSGSGTEFTLTISSLQPDDLATYYCQQYNTYPYTFGQGTKLEIK |  |  |  |  |  |  | EC50 [16]: 0.025 nM; Kd [17]: 0.69 nM
